Test results from publication PMC1839085, “Crystal structures of an Extracytoplasmic Solute Receptor from a TRAP transporter in its open and closed forms reveal a helix-swapped dimer requiring a cation for α-keto acid binding” (BMC Structural Biology, 2007).

What was measured:
[1] = target: the molecule itself; test: crystal structure; unliganded SeMet TakP, space group P2(1), four molecules in the asymmetric unit; hanging drop, 293 K, 100 mM sodium citrate pH 5.8-6.0, 1.4-1.6 M ammonium sulfate; solved by MAD
[2] = target: the molecule itself; test: SEC; gel filtration on Superdex 200 26/60 in 20 mM Tris HCl pH 8.0, 50 mM NaCl, calibrated with commercial standards
[3] = target: the molecule itself; test: cross-linking; 3.2 and 6.3 μM TakP with 50 mM glutaraldehyde, 20 mM Na2HPO4/KH2PO4 pH 7.8, 18°C, 3 hours; denaturing 10% Nu-PAGE gel; dimer to monomers

Protein | binding result [1] | stoichiometry N [2] | Kd [3] [nM]
Selenomethionine-labeled TakP from Rhodobacter sphaeroides (natural protein, Rhodobacter sphaeroides 2.4.1, selenomethionine (SeMet) labeled, TakP (previously named SmoM), Rhodobacter sphaeroides 2.4.1; same construct as m1 (pET101/D-TOPO, 1099 bp fragment), labeled with selenomethionine; final model holds four molecules from residue 28 or 32 to 365; Same construct as m1, with methionines replaced by selenomethionine; used for the unliganded MAD structure (PDB 2HZK); also called SeMet TakP; selenomethionine labeled protein; source: E. …) QSAPKVTWRLASSFPKSLDTIFGGAEVLSKMLSEATDGNFQIQVFSAGELVPGLQAADAVTEGTVECCHTVGYYYWGKDPTFALAAAVPFSLSARGINAWHYHGGGIDLYNEFLSQHNIVAFPGGNTGVQMGGWFRREINTVADMQGLKMRVGGFAGKVMERLGVVPQQIAGGDIYPALEKGTIDATEWVGPYDDEKLGFFKVAPYYYYPGWWEGGPTVHFMFNKSAYEGLTPTYQSLLRTACHAADANMLQLYDWKNPTAIKSLVAQGTQLRPFSPEILQACFEAANEVYAEMEASNPAFKKIWDSIKAFRSEHYTWAQIAEYNYDTFMMVQQNAGKL | binds |  | 
TakP (TRAP transporter alpha-keto acid binding P subunit) from Rhodobacter sphaeroides (natural protein, Rhodobacter sphaeroides 2.4.1, TakP (previously named SmoM), extracytoplasmic solute receptor (P subunit) of a TRAP transporter, Rhodobacter sphaeroides 2.4.1; gene amplified from genomic DNA as a 1099 bp fragment and cloned into pET101/D-TOPO; crystal models span residues 28 or 32 to 365; The 1099 bp fragment would fit the whole gene of 365 codons, so the signal peptide may be in the construct; The theoretical molecular …) QSAPKVTWRLASSFPKSLDTIFGGAEVLSKMLSEATDGNFQIQVFSAGELVPGLQAADAVTEGTVECCHTVGYYYWGKDPTFALAAAVPFSLSARGINAWHYHGGGIDLYNEFLSQHNIVAFPGGNTGVQMGGWFRREINTVADMQGLKMRVGGFAGKVMERLGVVPQQIAGGDIYPALEKGTIDATEWVGPYDDEKLGFFKVAPYYYYPGWWEGGPTVHFMFNKSAYEGLTPTYQSLLRTACHAADANMLQLYDWKNPTAIKSLVAQGTQLRPFSPEILQACFEAANEVYAEMEASNPAFKKIWDSIKAFRSEHYTWAQIAEYNYDTFMMVQQNAGKL |  | 2 | < 300
